Measured values published in patent publication CN101386648A (MICROORGANISM EPIDEMIC INST OF, dated 2009).
Numbering of substitutions follows the chain as printed.

B1: 人源化抗B型肉毒神经毒素中和性抗体HuBNbP8 (recombinant MBP-scFv fusion protein expressed from pMAL-HuFv) (scFv)
scFv: AQVQLVQSGAEVVKPGASVKLSCKASGYTFTSYYIYWVKQRPGQGLGWIGEIYPSNGGTNFNEKFKTKATLTVDKSASTAYMQLSSLTSEDSTVYYCARMGNYGGSYFDYWGQGTTLTVSSGGGGSGGGGSGGGGSDIVLTQSPATLSVTPGESVSLSCGASQSISNNLHWYQQKSHESPRLLIKFASQSISGIPSKFSGSGSGTDFSLSINSLETEDFGVFFCQQSDTWPYTFGGGTKLEIKRAAAE
B2: 鼠源抗B型肉毒神经毒素中和性抗体MuBNbP8 (recombinant MBP-scFv fusion protein expressed from pMAL-MuFv) (scFv)
scFv: B1 scFv with Q4K, V6Q, V12L, A77S, E153D

Experiments:
[1] = target: T1, F型肉毒神经毒素 (botulinum neurotoxin type F) (Clostridium botulinum, UniProt P30996 1-1274); test: ELISA
T1 sequence: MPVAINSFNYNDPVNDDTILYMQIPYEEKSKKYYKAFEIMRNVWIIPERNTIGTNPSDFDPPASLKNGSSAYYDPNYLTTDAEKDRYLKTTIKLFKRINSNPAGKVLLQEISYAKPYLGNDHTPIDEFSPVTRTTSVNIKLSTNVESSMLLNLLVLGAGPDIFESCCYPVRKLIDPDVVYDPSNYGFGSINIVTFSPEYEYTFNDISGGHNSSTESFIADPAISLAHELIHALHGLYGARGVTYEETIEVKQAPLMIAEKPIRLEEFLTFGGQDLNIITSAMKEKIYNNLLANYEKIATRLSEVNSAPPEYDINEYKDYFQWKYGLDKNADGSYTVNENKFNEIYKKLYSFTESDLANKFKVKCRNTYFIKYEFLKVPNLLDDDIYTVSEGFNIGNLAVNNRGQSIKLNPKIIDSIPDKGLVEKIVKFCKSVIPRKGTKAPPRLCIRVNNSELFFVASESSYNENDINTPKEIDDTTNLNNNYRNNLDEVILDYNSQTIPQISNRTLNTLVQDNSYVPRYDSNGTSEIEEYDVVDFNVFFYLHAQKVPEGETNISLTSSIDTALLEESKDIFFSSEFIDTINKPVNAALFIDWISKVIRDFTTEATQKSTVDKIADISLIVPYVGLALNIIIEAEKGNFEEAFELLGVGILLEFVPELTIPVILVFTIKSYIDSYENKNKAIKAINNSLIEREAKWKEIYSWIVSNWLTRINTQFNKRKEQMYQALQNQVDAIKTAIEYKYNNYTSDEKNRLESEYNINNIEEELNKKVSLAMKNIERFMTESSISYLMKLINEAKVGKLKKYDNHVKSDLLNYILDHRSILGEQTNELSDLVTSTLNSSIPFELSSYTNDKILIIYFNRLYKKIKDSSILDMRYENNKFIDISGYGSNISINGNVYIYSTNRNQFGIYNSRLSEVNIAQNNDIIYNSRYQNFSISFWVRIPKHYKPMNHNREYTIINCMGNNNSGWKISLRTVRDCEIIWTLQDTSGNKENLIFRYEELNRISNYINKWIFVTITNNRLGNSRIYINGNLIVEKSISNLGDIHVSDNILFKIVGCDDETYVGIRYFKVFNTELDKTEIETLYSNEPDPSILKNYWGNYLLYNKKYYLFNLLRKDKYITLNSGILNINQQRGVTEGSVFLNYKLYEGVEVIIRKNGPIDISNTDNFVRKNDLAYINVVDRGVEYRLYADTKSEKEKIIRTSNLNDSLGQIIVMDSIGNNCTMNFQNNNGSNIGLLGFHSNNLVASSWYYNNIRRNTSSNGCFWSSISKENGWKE

[2] = target: T2, E型肉毒神经毒素 (botulinum neurotoxin type E) (Clostridium botulinum, UniProt Q00496 2-1251); test: ELISA
T2 sequence: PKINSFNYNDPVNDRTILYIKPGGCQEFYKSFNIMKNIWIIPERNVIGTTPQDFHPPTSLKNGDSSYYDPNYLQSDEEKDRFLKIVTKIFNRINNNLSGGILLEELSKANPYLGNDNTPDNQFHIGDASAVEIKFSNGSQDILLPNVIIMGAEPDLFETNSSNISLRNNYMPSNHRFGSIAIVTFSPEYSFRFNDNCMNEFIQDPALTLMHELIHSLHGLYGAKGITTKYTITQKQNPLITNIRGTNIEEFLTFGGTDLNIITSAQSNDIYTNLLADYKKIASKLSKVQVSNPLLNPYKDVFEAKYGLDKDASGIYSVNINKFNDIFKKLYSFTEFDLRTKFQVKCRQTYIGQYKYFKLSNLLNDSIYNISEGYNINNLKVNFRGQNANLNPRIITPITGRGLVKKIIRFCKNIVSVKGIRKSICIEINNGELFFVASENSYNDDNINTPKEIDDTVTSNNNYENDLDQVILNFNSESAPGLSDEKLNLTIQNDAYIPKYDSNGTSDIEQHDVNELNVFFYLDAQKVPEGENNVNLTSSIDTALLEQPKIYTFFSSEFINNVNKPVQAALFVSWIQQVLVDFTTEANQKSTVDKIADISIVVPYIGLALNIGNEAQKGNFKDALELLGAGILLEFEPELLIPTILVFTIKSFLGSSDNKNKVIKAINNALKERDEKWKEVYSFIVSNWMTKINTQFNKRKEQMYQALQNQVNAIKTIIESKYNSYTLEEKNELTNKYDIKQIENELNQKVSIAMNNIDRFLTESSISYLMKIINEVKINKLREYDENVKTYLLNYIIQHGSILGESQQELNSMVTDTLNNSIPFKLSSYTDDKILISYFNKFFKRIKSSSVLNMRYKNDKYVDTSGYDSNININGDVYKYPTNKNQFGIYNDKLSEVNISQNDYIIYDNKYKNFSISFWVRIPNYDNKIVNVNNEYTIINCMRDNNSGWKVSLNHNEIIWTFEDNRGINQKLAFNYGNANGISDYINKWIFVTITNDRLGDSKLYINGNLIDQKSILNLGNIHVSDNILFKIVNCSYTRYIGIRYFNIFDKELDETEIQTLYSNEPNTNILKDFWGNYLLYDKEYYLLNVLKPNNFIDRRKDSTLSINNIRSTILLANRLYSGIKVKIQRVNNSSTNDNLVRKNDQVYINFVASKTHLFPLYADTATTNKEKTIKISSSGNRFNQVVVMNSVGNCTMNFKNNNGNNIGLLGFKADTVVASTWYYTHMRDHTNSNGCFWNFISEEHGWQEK

[3] = target: A型肉毒神经毒素 (botulinum neurotoxin type A) (Clostridium botulinum, UniProt P0DPI0 2-1296); test: ELISA
Chain of A型肉毒神经毒素 (botulinum neurotoxin type A) (P0DPI0 2-1296 limits assumed): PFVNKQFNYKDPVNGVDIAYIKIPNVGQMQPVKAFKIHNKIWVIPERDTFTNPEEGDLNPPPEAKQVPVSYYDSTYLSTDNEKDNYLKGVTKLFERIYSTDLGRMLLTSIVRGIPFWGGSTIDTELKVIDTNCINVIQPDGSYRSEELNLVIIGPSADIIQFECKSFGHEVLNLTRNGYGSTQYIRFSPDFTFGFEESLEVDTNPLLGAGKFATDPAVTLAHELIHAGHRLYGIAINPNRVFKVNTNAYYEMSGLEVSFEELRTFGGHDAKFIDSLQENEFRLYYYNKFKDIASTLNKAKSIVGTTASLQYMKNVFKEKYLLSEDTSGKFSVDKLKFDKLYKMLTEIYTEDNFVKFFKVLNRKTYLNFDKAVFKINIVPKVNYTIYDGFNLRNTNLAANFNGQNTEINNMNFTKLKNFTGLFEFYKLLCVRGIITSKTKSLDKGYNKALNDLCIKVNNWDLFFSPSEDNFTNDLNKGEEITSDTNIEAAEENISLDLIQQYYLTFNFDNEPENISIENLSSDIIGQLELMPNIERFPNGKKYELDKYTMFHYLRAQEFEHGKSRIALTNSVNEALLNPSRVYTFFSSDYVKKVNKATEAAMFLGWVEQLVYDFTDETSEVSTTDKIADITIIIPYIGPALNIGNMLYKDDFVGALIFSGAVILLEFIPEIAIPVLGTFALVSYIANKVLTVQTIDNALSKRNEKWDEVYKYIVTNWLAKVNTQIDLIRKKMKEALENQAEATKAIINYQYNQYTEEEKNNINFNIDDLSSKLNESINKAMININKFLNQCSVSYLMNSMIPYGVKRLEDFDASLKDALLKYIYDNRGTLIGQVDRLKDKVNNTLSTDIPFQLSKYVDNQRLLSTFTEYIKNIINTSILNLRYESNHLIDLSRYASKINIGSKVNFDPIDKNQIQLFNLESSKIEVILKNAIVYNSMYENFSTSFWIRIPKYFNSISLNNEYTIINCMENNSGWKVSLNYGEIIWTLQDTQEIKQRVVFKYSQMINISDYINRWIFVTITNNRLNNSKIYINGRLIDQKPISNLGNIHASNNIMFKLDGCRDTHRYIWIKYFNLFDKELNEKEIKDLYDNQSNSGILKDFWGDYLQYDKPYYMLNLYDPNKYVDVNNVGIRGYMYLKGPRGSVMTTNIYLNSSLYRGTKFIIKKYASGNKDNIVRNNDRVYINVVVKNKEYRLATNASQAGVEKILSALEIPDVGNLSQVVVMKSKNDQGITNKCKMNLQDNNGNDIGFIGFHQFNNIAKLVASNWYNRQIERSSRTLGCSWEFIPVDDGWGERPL

[4] = target: T3, B型肉毒神经毒素 (botulinum neurotoxin type B) (Clostridium botulinum, UniProt P10844 2-1291); test: SPR (Biacore 3000, CM5 chip), […]
T3 sequence: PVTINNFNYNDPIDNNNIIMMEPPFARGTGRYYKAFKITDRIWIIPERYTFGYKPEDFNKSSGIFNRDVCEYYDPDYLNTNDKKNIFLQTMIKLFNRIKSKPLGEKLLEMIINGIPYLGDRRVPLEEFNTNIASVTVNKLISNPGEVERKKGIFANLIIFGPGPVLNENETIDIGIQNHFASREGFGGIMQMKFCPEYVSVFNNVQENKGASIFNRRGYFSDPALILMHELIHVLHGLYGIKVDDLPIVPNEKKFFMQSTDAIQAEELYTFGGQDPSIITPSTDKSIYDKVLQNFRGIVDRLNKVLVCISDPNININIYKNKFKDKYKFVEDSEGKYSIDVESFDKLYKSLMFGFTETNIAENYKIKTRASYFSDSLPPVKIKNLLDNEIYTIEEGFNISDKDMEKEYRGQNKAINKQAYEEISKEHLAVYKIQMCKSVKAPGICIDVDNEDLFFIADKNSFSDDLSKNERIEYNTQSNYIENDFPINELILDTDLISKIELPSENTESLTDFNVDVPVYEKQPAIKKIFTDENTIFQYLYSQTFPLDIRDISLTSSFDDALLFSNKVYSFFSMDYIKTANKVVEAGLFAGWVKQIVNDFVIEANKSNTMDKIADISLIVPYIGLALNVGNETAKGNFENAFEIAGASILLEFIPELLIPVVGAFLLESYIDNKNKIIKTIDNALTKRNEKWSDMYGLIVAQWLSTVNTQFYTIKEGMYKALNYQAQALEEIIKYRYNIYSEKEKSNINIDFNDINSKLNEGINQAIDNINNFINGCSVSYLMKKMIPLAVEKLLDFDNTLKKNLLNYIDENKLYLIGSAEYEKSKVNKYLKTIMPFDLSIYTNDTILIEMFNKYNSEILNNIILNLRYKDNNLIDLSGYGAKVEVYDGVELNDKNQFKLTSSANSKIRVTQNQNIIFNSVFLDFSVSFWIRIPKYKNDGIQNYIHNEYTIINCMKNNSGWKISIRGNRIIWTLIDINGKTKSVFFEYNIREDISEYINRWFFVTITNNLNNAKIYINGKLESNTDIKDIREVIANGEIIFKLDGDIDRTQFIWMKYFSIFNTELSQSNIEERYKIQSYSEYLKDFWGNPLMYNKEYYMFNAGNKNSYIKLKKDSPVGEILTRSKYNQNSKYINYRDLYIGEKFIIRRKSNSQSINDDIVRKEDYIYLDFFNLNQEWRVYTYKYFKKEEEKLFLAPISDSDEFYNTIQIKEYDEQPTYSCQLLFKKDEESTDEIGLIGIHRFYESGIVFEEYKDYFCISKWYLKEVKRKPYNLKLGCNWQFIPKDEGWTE

Binder	binding result [1]	binding result [2]	binding result [3]	Kd [4]
B1	no binding	no binding	no binding	1.34 nM
B2	no binding	no binding	no binding	
